These results are taken from the supplement of paper PMC10126150.

± gives the standard deviation of the averaged measurements.

The subject of the data set is ATP. Kind of data set: switch fluorescence ratio, 500 uM ATP over buffer (Cy3 cluster intensity, sum of 5 cycles each) (fold (ratio)); higher = stronger signal-on switching upon ATP binding; sequences stand for … in TCGTCGGCAGCGTCAGATGTGTATAAGAGACAGTTTTTTTTTTTTTTTTTTTTTTTTT…TC. As to conditions: aptamer strand: ATP DNA aptamer (quencher-CACCTGGGGGAGTATTGCGGAGGAAGG + anchor), 100 nM annealed; ATP concentration: 500 uM. The essentials: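 Values give the fluorescence ratio for each switch-domain sequence, averaged from per-cluster ratios of summed target-cycle to summed buffer-cycle Cy3 intensity. The Cy3-labelled switching-strand clusters sat on a modified Illumina MiSeq flow-cell, were annealed to 100 nM quencher-labelled ATP aptamer, and were imaged in selection buffer, then after 15 min with 500 uM ATP at 22 °C. Five cycles ran with NaOH stripping and re-annealing between them, and clusters outside 100-1000 RFU were excluded.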
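Further: ATP exposure 15 min at 22 °C before imaging.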

Regarding CACGGGCCCT, the switch fluorescence ratio amounted to 1.02 ± 0.017. Regarding CACGGGGCTT, the switch fluorescence ratio was determined as 1.02 ± 0.021. Consider CACGGGGGAG, for which the switch fluorescence ratio is 1.005 ± 0.0096. Under CACGGTTTCT stands 1.09 ± 0.13; under CACGTCAACT, 1.32 ± 0.06; under CACGTCGGTA, 1.01 ± 0.015. For the sequence CACGTGGGAG, the switch fluorescence ratio was found to be 1.04 ± 0.023.

On to CACGTTAGTT, for which the switch fluorescence ratio is 1.06 ± 0.06. Under CACTAAATGT stands 1 ± 0.035; under CACTAGCGGA, 1.05 ± 0.023; under CACTAGGGGG, 1.05 ± 0.0083. Under CACTGAGATG stands 1.01 ± 0.03. The figure for CACTGCTTTA is 1.02 ± 0.037; for CACTGGGATT it is 1.01 ± 0.018; for CACTGTCTGT it is 0.98 ± 0.028. As to CACTGTCTT, the switch fluorescence ratio was determined as 0.991 ± 0.019. The figure for CACTGTGACA is 1.083 ± 0.0052; for CACTTCCTTA it is 1.098 ± 0.0081. The figure for CACTTCGCCA is 2.12 ± 0.17; for CACTTCTGGC it is 1.03 ± 0.011; for CACTTGATGT it is 0.996 ± 0.023. For the sequence CACTTGGTGG, the switch fluorescence ratio came to 0.96 ± 0.038. The figure for CACTTTGTTT is 1.01 ± 0.066; for CACTTTTGTA it is 1.01 ± 0.012; for CAGAAAAAAG it is 1.01 ± 0.028. Under CAGAAAAGCT stands 1.07 ± 0.034; under CAGAACAAAA, 1.03 ± 0.035; under CAGAACCAGG, 1.24 ± 0.06. For the sequence CAGAAGACAG, the switch fluorescence ratio stood at 0.995 ± 0.071. For CAGAAGGGTG, the switch fluorescence ratio was 1.02 ± 0.011. As to CAGAATTGAG, the switch fluorescence ratio was determined as 0.995 ± 0.0026. The figure for CAGACGTAGG is 1.01 ± 0.056; for CAGAGCCATA it is 1.05 ± 0.013; for CAGAGGAGTT it is 1.01 ± 0.051. In the case of CAGAGGGC, the switch fluorescence ratio was determined as 1.04 ± 0.04. The figure for CAGAGTAGGT is 1.02 ± 0.048. Under CAGAGTATCG stands 1 ± 0.021; under CAGAGTCGGT, 1 ± 0.024. Turning to CAGATCTGAA, the switch fluorescence ratio came to 0.952 ± 0.07.

On to CAGATGCCTC, for which the switch fluorescence ratio is 1.012 ± 0.0086. The figure for CAGATTATTT is 0.99 ± 0.015; for CAGATTTGCT it is 0.983 ± 0.013. Consider CAGCAAATGG, for which the switch fluorescence ratio came to 1.47 ± 0.26. Under CAGCACAGAT stands 1.015 ± 0.0019. The figure for CAGCATTGGG is 0.978 ± 0.038. The figure for CAGCCCGATC is 1.22 ± 0.032.

For the sequence CAGCCCTTGA, the switch fluorescence ratio worked out at 1.024 ± 0.0083. Take CAGCCGGGGA: the switch fluorescence ratio was found to be 1.02 ± 0.019.

As to CAGCGAGGTC, the switch fluorescence ratio was determined as 1.05 ± 0.012. Under CAGCGCGTGC stands 1.01 ± 0.051. The figure for CAGCGGGCGA is 1.01 ± 0.032; for CAGCGGGGCA it is 1.017 ± 0.0072. Turning to CAGCGGGGGG, the switch fluorescence ratio stood at 1.01 ± 0.034.

On to CAGCGGGGTG, for which the switch fluorescence ratio was found to be 1.11 ± 0.15. The figure for CAGCGTCTTT is 0.994 ± 0.012; for CAGCGTGGGG it is 1.022 ± 0.0092. As for CAGCTAAAGT, the switch fluorescence ratio is 1.009 ± 0.0017. Regarding CAGCTATGTG, the switch fluorescence ratio is 0.973 ± 0.011. Under CAGCTGGGGT stands 1.01 ± 0.039; under CAGCTTGGA, 1.01 ± 0.029; under CAGCTTTTCG, 0.998 ± 0.046.

CAGGACATTA: the switch fluorescence ratio worked out at 0.994 ± 0.058. In the case of CAGGAGTACA, the switch fluorescence ratio worked out at 1.03 ± 0.012.

Regarding CAGGAGTAGC, the switch fluorescence ratio was found to be 1.05 ± 0.018.

As to CAGGAGTTGA, the switch fluorescence ratio was 1.01 ± 0.025. The figure for CAGGCATGCG is 1.01 ± 0.037.

Consider CAGGCGTTGC, for which the switch fluorescence ratio was determined as 1.17 ± 0.19.

In the case of CAGGCTTGG, the switch fluorescence ratio is 0.994 ± 0.011. For the sequence CAGGCTTGTA, the switch fluorescence ratio stood at 1.004 ± 0.0098. Under CAGGGAAAAC stands 1.03 ± 0.034; under CAGGGAAAAG, 0.991 ± 0.032; under CAGGGAAGCG, 0.991 ± 0.018.

CAGGGACAAT: the switch fluorescence ratio came to 1.04 ± 0.023. In the case of CAGGGAGAAT, the switch fluorescence ratio turned out to be 1.01 ± 0.019. Turning to CAGGGAGCTG, the switch fluorescence ratio was found to be 1.01 ± 0.027.

On to CAGGGATAGG, for which the switch fluorescence ratio was determined as 1.019 ± 0.0092. For the sequence CAGGGATGCT, the switch fluorescence ratio came to 1.02 ± 0.035. Consider CAGGGATGGG, for which the switch fluorescence ratio came to 0.961 ± 0.023. Turning to CAGGGCAAGC, the switch fluorescence ratio came out at 1.36 ± 0.057. The figure for CAGGGCAGGG is 0.951 ± 0.028; for CAGGGCCATA it is 1.02 ± 0.0042; for CAGGGCGTTT it is 1.01 ± 0.028. The figure for CAGGGCTCCC is 1.01 ± 0.02; for CAGGGGAAGC it is 0.999 ± 0.011. Under CAGGGGAAGG stands 1.04 ± 0.053; under CAGGGGAGAG, 0.999 ± 0.027. In the case of CAGGGGATAT, the switch fluorescence ratio came to 0.993 ± 0.046.

Take CAGGGGATTG: the switch fluorescence ratio worked out at 1.11 ± 0.14.

As for CAGGGGCCAA, the switch fluorescence ratio turned out to be 0.979 ± 0.017.

CAGGGGCGGC: the switch fluorescence ratio turned out to be 0.923 ± 0.064.

As to CAGGGGCTTC, the switch fluorescence ratio is 1.02 ± 0.018.

With CAGGGGGGAA, the switch fluorescence ratio came out at 1.024 ± 0.0064. The figure for CAGGGGGGCT is 1.04 ± 0.057; for CAGGGGGGTG it is 1.01 ± 0.051; for CAGGGGGTAA it is 1.01 ± 0.069. The figure for CAGGGGGTTG is 0.9866 ± 0.0018.

For the sequence CAGGGGTCGT, the switch fluorescence ratio came out at 1.03 ± 0.038.

Take CAGGGGTTAG: the switch fluorescence ratio amounted to 0.9927 ± 0.0026. On to CAGGGGTTAT, for which the switch fluorescence ratio came to 1.01 ± 0.015. The figure for CAGGGTATGA is 1.007 ± 0.0046; for CAGGGTCGGC it is 0.993 ± 0.035; for CAGGGTGATA it is 1.06 ± 0.071. The figure for CAGGGTGGGA is 1.02 ± 0.044; for CAGGGTTATT it is 0.995 ± 0.02; for CAGGGTTGTT it is 0.992 ± 0.026.

On to CAGGTAAATT, for which the switch fluorescence ratio was found to be 0.975 ± 0.03. Consider CAGGTAATAG, for which the switch fluorescence ratio turned out to be 1.17 ± 0.028. Take CAGGTAGATC: the switch fluorescence ratio stood at 1.04 ± 0.05. The figure for CAGGTATTCA is 1.0177 ± 8.3e-05. For the sequence CAGGTATTGA, the switch fluorescence ratio amounted to 1 ± 0.03. Under CAGGTCCGCT stands 1.12 ± 0.036; under CAGGTCGTT, 1.01 ± 0.054; under CAGGTCTGTG, 1.025 ± 0.0022. The figure for CAGGTTAAGG is 1.01 ± 0.018; for CAGGTTGAAG it is 0.9631 ± 0.0069. Under CAGGTTGTTT stands 1.23 ± 0.45. As to CAGGTTTAGG, the switch fluorescence ratio was 1.01 ± 0.021. On to CAGGTTTGGT, for which the switch fluorescence ratio worked out at 0.984 ± 0.021.

On to CAGGTTTTCT, for which the switch fluorescence ratio came to 0.9968 ± 0.0018. Under CAGTAAAGTG stands 0.998 ± 0.017.
